Changes are numbered by the printed parent chain. Numbers in names are those of the source. Values belong to the molecule of their own block, whether it stands above or below them.
Tests used:
[1] = molecular target: FA-Ala-Leu-OH
[2] = molecular target: FA-Ala-Val-OH
[3] = molecular target: FA-Ala-Phe-OH
[4] = molecular target: FA-Ala-Ala-OH
[5] = molecular target: FA-Phe-Val-OH
[6] = molecular target: T1, yeast carboxypeptidase Y (CPD-Y), wild type (SEQ ID NO:32) (Saccharomyces cerevisiae, UniProt P00729); test: Aminolysis of ester/peptide substrates; KN(app) of nucleophile; assay type: biochemical; conditions: for Kn,app: Table V, FA-Ala-OBzl as substrate; for Kn,app (H-Val-NH2 as nucleophile): Table VI, substance of the line is the substrate (leaving group varied)
T1 construct: purchased Carlbiotech, Copenhagen, Denmark
T1 sequence (P00729 112-532): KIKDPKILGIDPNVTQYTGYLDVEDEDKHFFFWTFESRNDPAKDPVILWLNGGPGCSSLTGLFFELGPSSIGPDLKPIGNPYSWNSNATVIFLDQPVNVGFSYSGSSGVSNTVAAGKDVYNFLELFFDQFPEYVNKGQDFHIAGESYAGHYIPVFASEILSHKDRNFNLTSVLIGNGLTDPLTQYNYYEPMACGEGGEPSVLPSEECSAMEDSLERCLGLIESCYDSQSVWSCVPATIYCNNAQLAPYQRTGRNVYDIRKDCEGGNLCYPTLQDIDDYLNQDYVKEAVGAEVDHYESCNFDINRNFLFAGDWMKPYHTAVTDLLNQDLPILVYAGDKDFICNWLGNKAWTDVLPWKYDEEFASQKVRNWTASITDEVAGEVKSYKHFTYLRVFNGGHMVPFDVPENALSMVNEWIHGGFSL
Protocol: (§1) Aminolysis reactions were carried out in the following way. The nucleophile was dissolved in 50 mM Hepes, 5 mM EDTA and pH was adjusted to 7.5. Five (5) μl of substrate (8 mM FA-Ala-OBzl in methanol) was added to 190 μl nucleophile solution followed by 5 μl enzyme, resulting in a substrate concentration of 0.2 mM. For reactions carried out at pH 9.5, Hepes was replaced with Ches. During the reaction, 20 μl aliquots were removed from the reaction mixture and added to 50 μl 1% trifluoroacetic acid to quench the reaction. The reactant composition was determined by HPLC using a Waters HPLC equipped with a C-18 Waters Novapac 4μ reverse phase column and various gradients of acetonitrile in 0.1% trifluoroacetic acid. The separation was monitored at 302 nm allowing the direct quantification of the products from the integrated peak areas. The composition of the reaction mixture was determined at least twice during the reaction, the first time when 20-50% (preferably 35%) of the ester substrate had been consumed in the reaction and the second time when 50-90% (preferably 80%) of the substrate had been consumed. The products were collected and identified by amino acid analysis after acid hydrolysis using a Pharmacia Alpha Plus analyzer.
(§2) Further identification was obtained by co-chromatography of authentic standard compounds. The fraction of aminolysis (fa) was expressed as the ratio between the formed aminolysis product and the sum of all products being formed, i.e., unconsumed substrate was disregarded in the calculations. The KN(app), representing the nucleophile concentration at which fa is half the maximum value (a measure for the dissociation constant of the nucleophile), and famax (the highest possible fa obtained at saturation of the enzyme with nucleophile) were determined by fitting the values of fa obtained at a minimum of seven concentrations of nucleophile to a saturation. The value of fa obtained at the highest possible nucleophile concentration is designated fasat.
(§3) Aminolysis reactions were carried out in the following way. The nucleophile was dissolved in 50 mM HEPES, 5 mM EDTA and pH was adjusted to 7.5, 5 μl substrate (8 mM FA-Ala-OBzl or FA-Ala-Xaa-OH in methanol) was added to 190 μl nucleophile solution followed by 5 μl enzyme diluted in buffer to the appropriate concentration, resulting in a substrate concentration of 0.2 mM. During the reaction, 20 μl aliquots were removed from the reaction mixture and added to 50 μl 1% trifluoroacetic acid to quench the reaction. The reactant composition was determined by HPLC using a Waters HPLC equipped with a C-18 Waters Novapac 4μ reverse phase column and various gradients of acetonitrile in 0.1% trifluoroacetic acid. The separation was monitored at 302 nm allowing the direct quantification of the products from the integrated peak areas. The products were collected and identified by amino acid analysis after acid hydrolysis (Pharmacia Alpha Plus analyzer) and by co-chromatography of authentic standards. The fraction of aminolysis (fa) was expressed as the ratio between the formed aminolysis product and the sum of all products being formed, i.e. unconsumed substrate was disregarded in the calculations. The KN,app (a measure for the dissociation constant of the nucleophile) and famax (the highest possible fa obtained at saturation with nucleophile were determined by fitting the obtained fa values to the equation fa=famax /(1+KN,app /N).

[7] = molecular target: T2, carboxypeptidase Y (CPD-Y) variant E145A (Glu145 replaced by alanine) (Saccharomyces cerevisiae, UniProt P00729, E256A); test: Aminolysis; KN(app) of nucleophile; assay type: biochemical, yeast; conditions: pH 7.5; for Kn,app: Table V, amino acid nucleophile, FA-Ala-OBzl as substrate; for Kn,app (H-Val-NH2 as nucleophile): Table VI, substance of the line is the substrate (leaving group varied)
T2 construct: made in house; host or cells: S. cerevisiae W2579 (secreted)
Protocol: as §1, §2, §3

[8] = molecular target: T3, carboxypeptidase Y (CPD-Y) variant N51Q (Asn51 replaced with glutamine) (Saccharomyces cerevisiae, UniProt P00729, N162Q); test: Aminolysis; KN(app) of nucleophile; assay type: biochemical, yeast; conditions: for KN(app): Table III (unit as in Tables I, II), ester substrate; for KN(app) / Kn,app: amino acid nucleophile; for Kn,app: Table V, FA-Ala-OBzl as substrate; for Kn,app / Kn,app (H-Val-NH2 as nucleophile): pH 7.5; for Kn,app (H-Val-NH2 as nucleophile): Table VI, substance of the line is the substrate (leaving group varied)
T3 construct: made in house; host or cells: S. cerevisiae W2579 (secreted)
T3 sequence (P00729 112-532 N162Q): T1 sequence (P00729 112-532) with N51Q
Protocol: as §1, §2, §3

[9] = molecular target: CBZ-Phe-Leu-OH
[10] = molecular target: CBZ-Lys-Leu-OH
[11] = molecular target: CBZ-Glu-Leu-OH
[12] = molecular target: CBZ-Ser-Leu-OH
[13] = molecular target: CBZ-Ala-Leu-OH
[14] = molecular target: CBZ-Pro-Leu-OH
[15] = molecular target: CBZ-Gly-Leu-OH
[16] = molecular target: CBZ-Trp-Leu-OH
[17] = molecular target: CBZ-His-Leu-OH
[18] = molecular target: T4, carboxypeptidase Y (CPD-Y) variant N51S (Asn51 replaced with serine) (Saccharomyces cerevisiae, UniProt P00729, N162S); test: Aminolysis; KN(app) of nucleophile; assay type: biochemical, yeast; conditions: Table VI; substance of the line is the substrate (leaving group varied), pH 7.5
T4 construct: made in house; host or cells: S. cerevisiae W2579 (secreted)
T4 sequence (P00729 112-532 N162S): T1 sequence (P00729 112-532) with N51S
Protocol: as §1, §2, §3

[19] = molecular target: T5, carboxypeptidase Y (CPD-Y) variant E65A (Glu65 replaced by alanine) (Saccharomyces cerevisiae, UniProt P00729, E176A); test: Aminolysis; KN(app) of nucleophile; assay type: biochemical, yeast; conditions: pH 7.5; for Kn,app (H-Val-NH2 as nucleophile): Table VI, substance of the line is the substrate (leaving group varied)
T5 construct: made in house; host or cells: S. cerevisiae W2579 (secreted)
Protocol: as §1, §2, §3

[20] = substrate: CC(C)[C@H](NC(=O)[C@H](Cc1ccccc1)NC(=O)C=Cc1ccco1)C(=O)O; test: Hydrolysis of FA-Phe-Val-OH; assay type: biochemical, yeast; conditions: other: hydrolysis of FA-Phe-Val-OH
[21] = Table II, amino acid nucleophile, substrate FA-Ala-OBzl, pH 7.5
[22] = Table III (unit as in Tables I, II), amino acid nucleophile, ester substrate

T2 sequence (P00729 112-532 E256A): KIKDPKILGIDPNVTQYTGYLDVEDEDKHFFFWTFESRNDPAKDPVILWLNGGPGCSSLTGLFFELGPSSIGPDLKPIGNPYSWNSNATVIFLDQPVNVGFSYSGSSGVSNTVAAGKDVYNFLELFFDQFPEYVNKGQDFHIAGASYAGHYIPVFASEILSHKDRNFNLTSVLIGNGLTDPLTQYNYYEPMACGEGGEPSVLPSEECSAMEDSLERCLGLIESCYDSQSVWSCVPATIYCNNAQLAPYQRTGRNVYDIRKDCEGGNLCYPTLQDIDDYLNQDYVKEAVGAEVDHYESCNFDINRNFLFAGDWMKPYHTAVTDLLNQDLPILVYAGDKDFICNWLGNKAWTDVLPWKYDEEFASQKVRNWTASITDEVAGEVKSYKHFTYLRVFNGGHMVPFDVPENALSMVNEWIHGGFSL
T5 sequence (P00729 112-532 E176A): as the sequence (P00729 112-532 E256A) above, with E65A, A145E counted along it

famax of transpeptidation (nucleophile H-Val-NH2) [1]: 0.8
famax of transpeptidation (nucleophile H-Val-NH2) [2]: 0.91
famax of transpeptidation (nucleophile H-Val-NH2) [3]: 0.77
famax of transpeptidation (nucleophile H-Val-NH2) [4]: 0.98
kcat/KM of hydrolysis [5]: 300000 M⁻¹ s⁻¹
Molecule: carboxypeptidase Y mutant N51Q (enzyme)

famax of transpeptidation (nucleophile H-Val-NH2) [1]: 0.65
famax of transpeptidation (nucleophile H-Val-NH2) [2]: 0.8
famax of transpeptidation (nucleophile H-Val-NH2) [3]: 0.49
Molecule: carboxypeptidase Y mutant E145A (enzyme)

Molecule: CC(C)C[C@H](N)C(=O)O [H--Leu--OH, H-Leu-OH]
KN(app) [6, 21]: 10 ± 0.8 mM
KN(app) [6, 22]: 10 ± 1 mM
Kn,app ([6]; amino acid nucleophile, pH 7.5): 10 ± 1 mM
Kn,app [7]: 40 ± 2 mM
KN(app) [8]: 42 ± 1 mM
Kn,app [8]: 42 ± 1 mM

kcat/Km of hydrolysis [9]: 1.83e+06 M⁻¹ s⁻¹
kcat/Km of hydrolysis [10]: 36700 M⁻¹ s⁻¹
kcat/Km of hydrolysis [11]: 8330 M⁻¹ s⁻¹
kcat/Km of hydrolysis [12]: 50000 M⁻¹ s⁻¹
kcat/Km of hydrolysis [13]: 40000 M⁻¹ s⁻¹
estimated CPD-Y activity relative to wild type transformants (fold of wild type) [14]: 2.8
estimated CPD-Y activity relative to wild type transformants (fold of wild type) [15]: 0.6
estimated CPD-Y activity relative to wild type transformants (fold of wild type) [16]: 1.9
estimated CPD-Y activity relative to wild type transformants (fold of wild type) [17]: 0.9
Molecule: carboxypeptidase Y mutant 178Ser/215Ala/216Pro (enzyme)

famax of transpeptidation (nucleophile H-Val-NH2) [1]: 0.71
famax of transpeptidation (nucleophile H-Val-NH2) [2]: 0.67
famax of transpeptidation (nucleophile H-Val-NH2) [3]: 0.66
famax of transpeptidation (nucleophile H-Val-NH2) [4]: 0.96
Molecule: carboxypeptidase Y mutant E65A (enzyme)

Molecule: CC(C)[C@H](NC(=O)[C@H](C)NC(=O)C=Cc1ccco1)C(=O)O [FA--Ala--Val--OH, FA-Ala-Val-OH]
Kn,app (H-Val-NH2 as nucleophile) ([6]; pH 7.5): 1.5 ± 0.1 mM
Kn,app (H-Val-NH2 as nucleophile) [18]: 1.8 ± 0.1 mM
Kn,app (H-Val-NH2 as nucleophile) [19]: 5.7 ± 0.3 mM
Kn,app (H-Val-NH2 as nucleophile) [7]: 4.2 ± 0.2 mM
Kn,app (H-Val-NH2 as nucleophile) [8]: 2.4 ± 0.1 mM

Molecule: C[C@H](NC(=O)C=Cc1ccco1)C(=O)N[C@@H](Cc1ccccc1)C(=O)O [FA--Ala--Phe--OH, FA-Ala-Phe-OH]
Kn,app (H-Val-NH2 as nucleophile) ([6]; pH 7.5): 1.1 ± 0.1 mM
Kn,app (H-Val-NH2 as nucleophile) [19]: 4.7 ± 0.1 mM
Kn,app (H-Val-NH2 as nucleophile) [7]: 4.1 ± 0.1 mM
Kn,app (H-Val-NH2 as nucleophile) [8]: 3.1 ± 0.1 mM

kcat/Km of hydrolysis [9]: 3.33e+06 M⁻¹ s⁻¹
kcat/Km of hydrolysis [10]: 61700 M⁻¹ s⁻¹
kcat/Km of hydrolysis [11]: 12000 M⁻¹ s⁻¹
kcat/Km of hydrolysis [12]: 100000 M⁻¹ s⁻¹
kcat/Km of hydrolysis [13]: 80000 M⁻¹ s⁻¹
estimated CPD-Y activity relative to wild type transformants (fold of wild type) [14]: 1.8
estimated CPD-Y activity relative to wild type transformants (fold of wild type) [15]: 1.1
estimated CPD-Y activity relative to wild type transformants (fold of wild type) [16]: 1.2
estimated CPD-Y activity relative to wild type transformants (fold of wild type) [17]: 1.1
Molecule: carboxypeptidase Y mutant 178Ser (enzyme)

famax of transpeptidation (nucleophile H-Val-NH2) [2]: 0.13
famax of transpeptidation (nucleophile H-Val-NH2) [4]: 0.88
kcat/KM of hydrolysis [5]: 800000 M⁻¹ s⁻¹
Molecule: carboxypeptidase Y mutant N51S (enzyme)

Molecule: CC(C)C[C@H](NC(=O)[C@H](C)NC(=O)C=Cc1ccco1)C(=O)O [FA--Ala--Leu--OH, FA-Ala-Leu-OH]
Kn,app (H-Val-NH2 as nucleophile) ([6]; pH 7.5): 1.6 ± 0.1 mM
Kn,app (H-Val-NH2 as nucleophile) [19]: 5.2 ± 0.1 mM
Kn,app (H-Val-NH2 as nucleophile) [7]: 4.1 ± 0.1 mM
Kn,app (H-Val-NH2 as nucleophile) [8]: 2.4 ± 0.1 mM

Molecule: CC(C)[C@H](N)C(=O)O [H--Val--OH, H-Val-OH]
KN(app) ([6]; Table I, amino acid nucleophile, substrate FA-Ala-OBzl 0.2 mM, pH 7.5): 13 ± 1 mM
KN(app) [6, 21]: 13 ± 1 mM
KN(app) [6, 22]: 13 ± 1 mM
Kn,app ([6]; amino acid nucleophile, pH 7.5): 13 ± 1 mM
KN(app) ([6]; nucleophile with substrate FA-Ala-OBzl, pH 7.5): 13 mM
Kn,app ([19]; Table V, amino acid nucleophile, FA-Ala-OBzl as substrate): 69 ± 2 mM
Kn,app [7]: 79 ± 6 mM
KN(app) [8]: 61 ± 3 mM
Kn,app [8]: 61 ± 2 mM

Molecule: C[C@H](NC(=O)[C@H](C)NC(=O)C=Cc1ccco1)C(=O)O [FA--Ala--Ala--OH, FA-Ala-Ala-OH]
Kn,app (H-Val-NH2 as nucleophile) ([6]; pH 7.5): 1.8 ± 0.1 mM
Kn,app (H-Val-NH2 as nucleophile) [18]: 1.9 ± 0.1 mM
Kn,app (H-Val-NH2 as nucleophile) [19]: 5.2 ± 0.5 mM
Kn,app (H-Val-NH2 as nucleophile) [8]: 3.1 ± 0.1 mM

B1: carboxypeptidase Y (CPD-Y) variant N51S (Asn51 replaced with serine) (Saccharomyces cerevisiae S288C; N162S) (protein)
chain: T1 sequence (P00729 112-532) with N51S
notes: made in house; host or cells: S. cerevisiae W2579 (secreted)
Km [20]: 170 µM
kcat [20]: 135 s⁻¹
kcat/Km [20]: 800000 M⁻¹ s⁻¹

— patent US5945329A, “Customized proteases” (Carlsberg A/S, priority 1997, dated 1999)
